Reference: paper PMC10397247

Legend:
P4A-bH = target: T1, P4A-bH; test: two-hybrid library CCNG1;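 note: natural log of median RNA to DNA barcode read ratio; higher means stronger binding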
T1 chain: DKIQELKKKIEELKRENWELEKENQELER

4H3907-bA = target: T2, 4H3907-bA; test: two-hybrid library CCNG1;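 note: natural log of median RNA to DNA barcode read ratio; higher means stronger binding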
T2 chain: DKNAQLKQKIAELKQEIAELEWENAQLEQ

4H3601-bA = target: T3, 4H3601-bA; test: two-hybrid library CCNG1;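 note: natural log of median RNA to DNA barcode read ratio; higher means stronger binding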
T3 chain: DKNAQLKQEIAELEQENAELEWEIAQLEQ

4H3592-bA = target: T4, 4H3592-bA; test: two-hybrid library CCNG1;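 note: natural log of median RNA to DNA barcode read ratio; higher means stronger binding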
T4 chain: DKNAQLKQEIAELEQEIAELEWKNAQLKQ

4H4038-bA = target: T5, 4H4038-bA; test: two-hybrid library CCNG1;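 note: natural log of median RNA to DNA barcode read ratio; higher means stronger binding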
T5 chain: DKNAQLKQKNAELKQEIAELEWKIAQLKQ

4H629-AA = target: T6, 4H629-AA; test: two-hybrid library CCmax; settings: mean of both orientations;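 note: natural log of median RNA to DNA barcode read ratio; higher means stronger binding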
T6 chain: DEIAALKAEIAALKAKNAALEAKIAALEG

4H2274-AA = target: T7, 4H2274-AA; test: two-hybrid library CCmax; settings: mean of both orientations
T7 chain: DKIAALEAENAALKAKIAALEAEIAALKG

4H3395-AA = target: T8, 4H3395-AA; test: two-hybrid library CCmax; settings: mean of both orientations
T8 chain: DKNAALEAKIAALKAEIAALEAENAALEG

4H2253-AA = target: T9, 4H2253-AA; test: two-hybrid library CCmax; settings: mean of both orientations
T9 chain: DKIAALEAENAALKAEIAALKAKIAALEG

4H1877-AA = target: T10, 4H1877-AA; test: two-hybrid library CCmax; settings: mean of both orientations
T10 chain: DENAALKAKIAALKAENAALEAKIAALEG

4H2330-AA = target: T11, 4H2330-AA; test: two-hybrid library CCmax; settings: mean of both orientations
T11 chain: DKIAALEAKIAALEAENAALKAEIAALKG

4H2725-AA = target: T12, 4H2725-AA; test: two-hybrid library CCmax; settings: mean of both orientations
T12 chain: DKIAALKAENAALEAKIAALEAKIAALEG

4H94-AA = target: T13, 4H94-AA; test: two-hybrid library CCmax; settings: mean of both orientations
T13 chain: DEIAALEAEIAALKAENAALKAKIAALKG

4H909-AA = target: T14, 4H909-AA; test: two-hybrid library CCmax; settings: mean of both orientations
T14 chain: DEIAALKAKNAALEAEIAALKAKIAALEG

4H3120-AA = target: T15, 4H3120-AA; test: two-hybrid library CCmax; settings: mean of both orientations
T15 chain: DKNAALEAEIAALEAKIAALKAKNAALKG

4H2389-AA = target: T16, 4H2389-AA; test: two-hybrid library CCmax; settings: mean of both orientations
T16 chain: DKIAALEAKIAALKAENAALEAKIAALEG

4H3165-AA = target: T17, 4H3165-AA; test: two-hybrid library CCmax; settings: mean of both orientations
T17 chain: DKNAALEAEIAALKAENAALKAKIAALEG

4H536-AA = target: T18, 4H536-AA; test: two-hybrid library CCmax; settings: mean of both orientations
T18 chain: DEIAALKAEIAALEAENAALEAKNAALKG

4H3016-AA = target: T19, 4H3016-AA; test: two-hybrid library CCmax; settings: mean of both orientations
T19 chain: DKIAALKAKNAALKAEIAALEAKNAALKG

4H930-AA = target: T20, 4H930-AA; test: two-hybrid library CCmax
T20 chain: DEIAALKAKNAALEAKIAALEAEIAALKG

4H3753-AA = target: T21, 4H3753-AA; test: two-hybrid library CCmax; settings: mean of both orientations
T21 chain: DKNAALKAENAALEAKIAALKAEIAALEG

4H2109-AA = target: T22, 4H2109-AA; test: two-hybrid library CCmax; settings: mean of both orientations
T22 chain: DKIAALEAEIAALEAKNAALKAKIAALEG

4H3130-AA = target: T23, 4H3130-AA; test: two-hybrid library CCmax; settings: mean of both orientations
T23 chain: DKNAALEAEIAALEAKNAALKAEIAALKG

4H570-AA = target: T24, 4H570-AA; test: two-hybrid library CCmax; settings: mean of both orientations
T24 chain: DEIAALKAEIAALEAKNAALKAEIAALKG

4H485-AA = target: T25, 4H485-AA; test: two-hybrid library CCmax; settings: mean of both orientations
T25 chain: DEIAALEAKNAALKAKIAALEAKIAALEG

4H797-AA = target: T26, 4H797-AA; test: two-hybrid library CCmax; settings: mean of both orientations
T26 chain: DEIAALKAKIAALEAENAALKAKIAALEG

4H3381-AA = target: T27, 4H3381-AA; test: two-hybrid library CCmax
T27 chain: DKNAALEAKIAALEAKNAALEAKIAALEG

4H891-AA = target: T28, 4H891-AA; test: two-hybrid library CCmax; settings: mean of both orientations
T28 chain: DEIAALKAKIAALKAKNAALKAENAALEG

4H3590-AA = target: T29, 4H3590-AA; test: two-hybrid library CCmax; settings: mean of both orientations
T29 chain: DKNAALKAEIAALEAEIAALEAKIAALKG

4H2162-AA = target: T30, 4H2162-AA; test: two-hybrid library CCmax; settings: mean of both orientations
T30 chain: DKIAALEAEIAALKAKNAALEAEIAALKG

4H2698-AA = target: T31, 4H2698-AA; test: two-hybrid library CCmax; settings: mean of both orientations
T31 chain: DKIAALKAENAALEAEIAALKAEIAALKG

4H171-AA = target: T32, 4H171-AA; test: two-hybrid library CCmax; settings: mean of both orientations
T32 chain: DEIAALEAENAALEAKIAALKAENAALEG

4H2649-AA = target: T33, 4H2649-AA; test: two-hybrid library CCmax; settings: mean of both orientations
T33 chain: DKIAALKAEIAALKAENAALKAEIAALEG

4H3697-AA = target: T34, 4H3697-AA; test: two-hybrid library CCmax; settings: mean of both orientations
T34 chain: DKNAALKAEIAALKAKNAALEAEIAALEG

4H1597-AA = target: T35, 4H1597-AA; test: two-hybrid library CCmax
T35 chain: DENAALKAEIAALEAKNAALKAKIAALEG

4H1864-AA = target: T36, 4H1864-AA; test: two-hybrid library CCmax; settings: mean of both orientations
T36 chain: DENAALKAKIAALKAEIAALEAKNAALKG

4H3865-AA = target: T37, 4H3865-AA; test: two-hybrid library CCmax; settings: mean of both orientations
T37 chain: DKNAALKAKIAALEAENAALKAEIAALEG

4H458-AA = target: T38, 4H458-AA; test: two-hybrid library CCmax; settings: mean of both orientations
T38 chain: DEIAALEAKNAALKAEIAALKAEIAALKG

4H174-AA = target: T39, 4H174-AA; test: two-hybrid library CCmax; settings: mean of both orientations
T39 chain: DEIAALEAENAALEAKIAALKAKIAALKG

4H1626-AA = target: T40, 4H1626-AA; test: two-hybrid library CCmax; settings: mean of both orientations
T40 chain: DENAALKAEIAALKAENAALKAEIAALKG

4H3009-AA = target: T41, 4H3009-AA; test: two-hybrid library CCmax; settings: mean of both orientations
T41 chain: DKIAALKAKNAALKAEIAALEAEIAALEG

4H2865-AA = target: T42, 4H2865-AA; test: two-hybrid library CCmax; settings: mean of both orientations
T42 chain: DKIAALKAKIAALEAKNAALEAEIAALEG

4H310-AA = target: T43, 4H310-AA; test: two-hybrid library CCmax; settings: mean of both orientations
T43 chain: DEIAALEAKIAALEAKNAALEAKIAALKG

4H745-AA = target: T44, 4H745-AA; test: two-hybrid library CCmax; settings: mean of both orientations
T44 chain: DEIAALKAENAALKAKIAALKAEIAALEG

4H1842-AA = target: T45, 4H1842-AA; test: two-hybrid library CCmax; settings: mean of both orientations
T45 chain: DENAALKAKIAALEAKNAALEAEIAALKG

4H2473-AA = target: T46, 4H2473-AA; test: two-hybrid library CCmax; settings: mean of both orientations
T46 chain: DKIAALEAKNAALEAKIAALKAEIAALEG

4H2438-AA = target: T47, 4H2438-AA; test: two-hybrid library CCmax; settings: mean of both orientations
T47 chain: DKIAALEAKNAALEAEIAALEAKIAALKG

4H710-AA = target: T48, 4H710-AA; test: two-hybrid library CCmax; settings: mean of both orientations
T48 chain: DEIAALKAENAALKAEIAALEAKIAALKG

4H850-AA = target: T49, 4H850-AA; test: two-hybrid library CCmax; settings: mean of both orientations
T49 chain: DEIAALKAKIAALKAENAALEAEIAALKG

4H3410-AA = target: T50, 4H3410-AA; test: two-hybrid library CCmax; settings: mean of both orientations
T50 chain: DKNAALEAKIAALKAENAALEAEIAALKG

DKNAQLKQEIAELEQEIAELEWKNAQLKQ [4H3592-bA]
interaction score (P4A-bH): 1.36 | interaction score (4H3907-bA): 0.467 | interaction score (4H3601-bA): -0.03 | interaction score (4H3592-bA): -0.131 | interaction score (4H4038-bA): -0.458

DENAALKAEIAALEAKNAALKAKIAALEG [4H1597-AA]
interaction score (4H629-AA): 0.0113 | interaction score (4H2274-AA): -1.74 | interaction score (4H3395-AA): -1.14 | interaction score (4H2253-AA): -1.29 | interaction score (4H1877-AA): 2.43 | interaction score (4H2330-AA): -1.59 | interaction score (4H2725-AA): 0.827 | interaction score (4H94-AA): -0.751 | interaction score (4H909-AA): -1.1 | interaction score (4H3120-AA): -1.49 | interaction score (4H2389-AA): 2.15 | interaction score (4H3165-AA): -0.486 | interaction score (4H536-AA): -0.234 | interaction score (4H3016-AA): -1.4 | interaction score (4H930-AA): -1.69 | interaction score (4H3753-AA): -0.89 | interaction score (4H2109-AA): -1.06 | interaction score (4H3130-AA): -1.55 | interaction score (4H570-AA): -1.39 | interaction score (4H485-AA): -1.53 | interaction score (4H797-AA): 0.0984 | interaction score (4H3381-AA): -0.659 | interaction score (4H891-AA): -1.56 | interaction score (4H3590-AA): 0.533 | interaction score (4H2162-AA): -1.31 | interaction score (4H2698-AA): -0.556 | interaction score (4H171-AA): -0.742 | interaction score (4H2649-AA): -0.826 | interaction score (4H3697-AA): 0.353 | interaction score (4H1597-AA): 0.478 | interaction score (4H1864-AA): 0.43 | interaction score (4H3865-AA): 0.833 | interaction score (4H458-AA): -1.71 | interaction score (4H174-AA): -0.236 | interaction score (4H1626-AA): -1.36 | interaction score (4H3009-AA): -1.02 | interaction score (4H2865-AA): 0.229 | interaction score (4H310-AA): -0.161 | interaction score (4H745-AA): -1.15 | interaction score (4H1842-AA): -0.303 | interaction score (4H2473-AA): -1.3 | interaction score (4H2438-AA): -0.641 | interaction score (4H710-AA): -1.99 | interaction score (4H850-AA): 1.96 | interaction score (4H3410-AA): 2
